Test results: patent CN113321730A

Molecular target: T1, hCLDN18.2 (human) (UniProt P56856)
T1 sequence (looked up): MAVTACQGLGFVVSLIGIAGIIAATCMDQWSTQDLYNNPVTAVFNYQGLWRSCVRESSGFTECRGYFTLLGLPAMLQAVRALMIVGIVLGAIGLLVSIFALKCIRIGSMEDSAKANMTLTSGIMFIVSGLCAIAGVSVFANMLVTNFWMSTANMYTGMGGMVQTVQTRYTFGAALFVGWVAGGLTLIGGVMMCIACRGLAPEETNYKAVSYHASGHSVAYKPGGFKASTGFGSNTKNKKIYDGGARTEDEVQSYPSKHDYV
Experiment: FACS titration on 18.2-K562 cells (20 to 0.002 μg/mL), Anti-Human IgG FITC, MFI

B1: 抗体E1(C18-23-3G5-1E1) (antibody, V domains shown)
VH: EVQLQQSGPELVKPGASVKISCQASGYTFTDYYMNWVKQSHVKSLEWIGHINPKNGGTNYNQNFKDKATLTVDKSSSTAYMELRSLTSEDSAVYYCARIYYGNSFVYWGQGTLVTVSA
VL: DIVMTQSPSFLTVTAGEKVTLNCKSSQSLLNSGNQKSYLTWYQQKPGQPPKLLIYWASTRESGVPDRFIGSGSGTDFTLTISSVQAEDLAVYYCQNNYFYPVTFGAGTKLELK
B1 was tested, and the 抗体亲和力 was 0.696 µg/mL.
